Consider one substance from paper PMC5322959.

The assay addresses His6x-tagged hRNF145 RING protein (human) (UniProt Q96MT1). Nature of the assay: SEC; Superdex 75 10/300 column calibrated with a set of standard proteins; elution volume corresponds to an apparent molecular mass of 39 kDa (predicted weight 18 kD).

In the case of “His6x-tagged hRNF145 RING protein (from UniProt Q96MT1-1 550-663) (domain or fragment)”, the stoichiometry N (usually a count of units in the complex or per binding partner) is 2.
